From US20250361274A1, “PEPTIDE AND PEPTIDE-CONTAINING AGENT” (PEPTIDREAM INC., priority 2022, published 2025)
Numbered stars: 1 amine (or outer) side, 2 acyl side, 3 side chain; on linkers, the order of the positions; unused ones are H or OH. Bridge positions count the residues as written; N and C are the ends. Square brackets hold non-standard residues; d marks the D form. Ends that are not written are not given here. KCOpipzaa = N6-(4-(carboxymethyl)piperazine-1-carbonyl)-L-lysine, O=C(NCCCC[C@H](N[*:1])C(=O)[*:2])N1CCN(CC(=O)[*:3])CC1; F42Py = (S)-2-amino-3-[4-(pyridin-2-yl)phenyl]propanoic acid, O=C([C@H](Cc1ccc(-c2ccccn2)cc1)N[*:1])[*:2]; 3Pal(6-Ph) = N[C@@H](Cc1ccc(-c2ccccc2)nc1)C(=O)O; Phe(4-COOH) = N[C@@H](Cc1ccc(C(=O)O)cc1)C(=O)O; NMePhe(4-Cl) = CN[C@@H](Cc1ccc(Cl)cc1)C(=O)O; NMePhe(4-Me) = CN[C@@H](Cc1ccc(C)cc1)C(=O)O; Bip = N[C@@H](Cc1ccc(-c2ccccc2)cc1)C(=O)O; Phe(4-F) = N[C@@H](Cc1ccc(F)cc1)C(=O)O; Ala(cPent) = N[C@@H](CC1CCCC1)C(=O)O; cisHyp = O=C(O)[C@@H]1C[C@H](O)CN1; NMeF = CN[C@@H](Cc1ccccc1)C(=O)O; hCit = NC(=O)NCCCC[C@H](N)C(=O)O; 4Pal = N[C@@H](Cc1ccncc1)C(=O)O; Aad = N[C@@H](CCCC(=O)O)C(=O)O; Cha = N[C@@H](CC1CCCCC1)C(=O)O; Ahp(2) = CCCCC[C@H](N)C(=O)O

Columns and labels:
BMP7 = target: T1, BMP7 (Homo sapiens, UniProt P18075); experiment: BMP7 signal transduction inhibitory activity: SMAD1 phosphorylation by BMP7 stimulus, A549 cells; assay type: cell-based; conditions: for aLISA BMP7: A549 cells
T1 sequence (P18075 293-431): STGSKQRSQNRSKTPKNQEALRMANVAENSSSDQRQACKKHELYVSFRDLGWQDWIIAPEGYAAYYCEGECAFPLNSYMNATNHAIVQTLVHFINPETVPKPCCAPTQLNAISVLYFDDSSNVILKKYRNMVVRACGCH
Method in brief: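 A549 cells were stimulated with 10 nM BMP7, and peptide inhibition of signalling was measured as SMAD1 phosphorylation. Peptides were tested at three concentrations, in sets ranging from 1–100 nM to 100–1,000 nM, or as eight-point 1/3 dilution series starting at 100 nM or 1,000 nM.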

BMP4 = target: T2, BMP4 (Homo sapiens, UniProt P12644); experiment: BMP4 signal transduction inhibitory activity: SMAD1 phosphorylation by BMP4 stimulus, AlphaLISA SureFire, A549 cells; assay type: cell-based; conditions: for aLISA BMP4: A549 cells
T2 sequence (P12644 293-408): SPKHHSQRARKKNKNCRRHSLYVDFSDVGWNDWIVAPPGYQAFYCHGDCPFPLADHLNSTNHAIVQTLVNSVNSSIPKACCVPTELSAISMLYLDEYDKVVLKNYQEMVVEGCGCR

[1] = BMP7 10 nM stimulus, peptide conc. in assay 10, 30, 90 nM
[2] = BMP4 0.2 nM stimulus, peptide conc. in assay 2, 20, 200 nM
[3] = BMP7 10 nM stimulus, peptide conc. in assay 1, 10, 100 nM
[4] = BMP4 0.2 nM stimulus, peptide conc. in assay 0.2, 2, 20 nM
[5] = inhibition of SMAD1 phosphorylation by BMP7 stimulus, AlphaLISA, class by peptide concentration zone
[6] = inhibition of SMAD1 phosphorylation by BMP4 stimulus, AlphaLISA, class by peptide concentration zone
[7] = SMAD1 phosphorylation, BMP7 10 nM, peptide conc. in assay 1, 10, 100 nM
[8] = SMAD1 phosphorylation, BMP4 0.2 nM, peptide conc. in assay 0.2, 2, 20 nM

Substance: 378 (FG[NMeF]G[Phe(4-F)]GDD[Cha]A[NMeF]LHCG-NH2; not fully specified) [compound 378]
- aLISA BMP7 (10 nM) % inh (BMP7; [1]): F (showed less than 30% of inhibitory activity in 10 nM-addition zone and showed 30% or more of inhibitory activity in 30 nM-addition zone)
- aLISA BMP4 (0.2 nM) % inh (BMP4; [2]): ND (the inhibitory activity was less than 30% at the maximum concentration evaluated)

Substance: 416 ([Phe(4-F)]G[NMeF]G[3Pal(6-Ph)]GDE[Cha][Aad][NMePhe(4-Me)]L[cisHyp]C-NH2; not fully specified) [compound 416]
- aLISA BMP7 (10 nM) % inh (BMP7; [3]): D (showed less than 30% of inhibitory activity in 10 nM-addition zone and showed 30% or more of inhibitory activity in 100 nM-addition zone)
- aLISA BMP4 (0.2 nM) % inh (BMP4; [4]): ND (the inhibitory activity was less than 30% at the maximum concentration evaluated)

Substance: 64 (Ac-E[KCOpipzaa]VYVD[KCOpipzaa][Bip]PYP[Bip]Y[Phe(4-COOH)][Phe(4-COOH)]SCG-NH2; thioether (positions not given here); not fully specified (bridges)) [compound 64]
- aLISA BMP7 (BMP7; [5]): D (showed less than 50% of inhibitory activity in 100 nM-addition zone)
- aLISA BMP4 (BMP4; [6]): C (showed an inhibitory activity of less than 50% in 0.2 nM-addition zone and showed an inhibitory activity of 50% or more in 2 nM-addition zone were defined as B or C)

Substance: 252 (LRVYVDR[3Pal(6-Ph)]SYV[Bip][4Pal][Phe(4-COOH)][Phe(4-COOH)]SCG-NH2; not fully specified) [compound 252]
- aLIZA BMP7 (10 nM) % Inh (BMP7; SMAD1 phosphorylation by BMP7 stimulus, peptide conc. in assay 10, 100, 1000 nM, class symbols): ND (the inhibitory activity was less than 30% at the maximum concentration evaluated)
- aLIZA BMP4 (0.2 nM) % Inh (BMP4; SMAD1 phosphorylation by BMP4 stimulus, peptide conc. in assay 0.02, 0.2, 2 nM, class symbols): C (showed less than 30% of inhibitory activity in 0.2 nM-addition zone and showed 30% or more of inhibitory activity in 2 nM-addition zone)

Substance: 137 ({CH2CO}-ERVYVDR[Bip][hCit]YV[Bip]Y[Phe(4-COOH)][Phe(4-COOH)]SCG-NH2; thioether N-17; not fully specified) [compound 137]
- aLISA BMP7 (BMP7; inhibition of SMAD1 phosphorylation by BMP7 stimulus, peptides of Synthesis 1, classes E, F, ND): E (showed 50% or more of inhibitory activity in a zone to which the peptide was added in an amount of 10 nM)
- aLISA BMP4 (BMP4; inhibition of SMAD1 phosphorylation by BMP4 stimulus, peptides of Synthesis 1, classes D-F, ND): D (showed 50% or more of inhibitory activity in 0.2 nM-addition zone)

Substance: 63 (Ac-E[KCOpipzaa]VYVDR[Bip]PYP[Bip]Y[Phe(4-COOH)][Phe(4-COOH)]SCG-NH2; thioether (positions not given here); not fully specified (bridges)) [compound 63]
- aLISA BMP7 (BMP7; [5]): C (showed less than 50% of inhibitory activity in 10 nM-addition zone and showed 50% or more of inhibitory activity in 100 nM-addition zone)
- aLISA BMP4 (BMP4; [6]): A (showed an inhibitory activity of 50% or more in a zone to which the peptide was added to in an amount of 0.2 nM)

Substance: 327 (FG[NMeF]G[F42Py]GDD[Cha]A[NMeF]LHCG-NH2; not fully specified) [compound 327]
- aLISA BMP7 (10 nM) % inh (BMP7; [7]): D (showed less than 30% of inhibitory activity in 10 nM-addition zone and showed 30% or more of inhibitory activity in 100 nM-addition zone)
- aLISA BMP4 (0.2 nM) % inh (BMP4; [8]): A (showed less than 30% of inhibitory activity in 2 nM-peptide-addition zone and showed 30% or more of inhibitory activity in 20 nM-addition zone)

Substance: 401 (FG[NMeF]G[Bip]GDE[Cha][Aad][NMeF]L[Phe(4-COOH)]CG-NH2; not fully specified) [compound 401]
- aLISA BMP7 (10 nM) % inh (BMP7; [3]): C (showed less than 30% of inhibitory activity in a zone to which the peptide was added in an amount of 1 nM and showed 30% or more of inhibitory activity in 10 nM-addition zone)
- aLISA BMP4 (0.2 nM) % inh (BMP4; [4]): ND (the inhibitory activity was less than 30% at the maximum concentration evaluated)

Substance: 389 (FG[NMeF]G[Bip]GDD[Cha]A[NMePhe(4-Cl)]LHCG-NH2; not fully specified) [compound 389]
- aLISA BMP7 (10 nM) % inh (BMP7; [1]): E (showed 30% or more of inhibitory activity in 10 nM-addition zone)
- aLISA BMP4 (0.2 nM) % inh (BMP4; [2]): B (showed less than 30% of inhibitory activity in 20 nM-addition zone and showed 30% or more of inhibitory activity in 200 nM-addition zone)

Substance: 345 (FG[NMeF]G[Bip]GDD[Cha]A[NMeF][Ahp(2)]HCG-NH2; not fully specified (N-terminus, bridges)) [compound 345]
- aLISA BMP7 (10 nM) % inh (BMP7; [7]): D (showed less than 30% of inhibitory activity in 10 nM-addition zone and showed 30% or more of inhibitory activity in 100 nM-addition zone)
- aLISA BMP4 (0.2 nM) % inh (BMP4; [8]): A (showed less than 30% of inhibitory activity in 2 nM-peptide-addition zone and showed 30% or more of inhibitory activity in 20 nM-addition zone)

Substance: 11 (ARVYVDRFKYPFYFFSCG; not fully specified; MOD_RES 8 F represents (S)-3-(1,1'-Biphenyl-4-yl)-2-aminopropanoic acid(Bph); MOD_RES 12 F represents (S)-3-(1,1'-Biphenyl-4-yl)-2-aminopropanoic acid(Bph); MOD_RES 14 F represents (S)-4-(2-amino-2-carboxyethyl)benzoic acid(F4COO); MOD_RES 15 F represents (S)-4-(2-amino-2-carboxyethyl)benzoic acid(F4COO)) [compound 11]
- aLISA BMP7 (BMP7; 10 nM BMP7, peptides of Synthesis 2, peptide 1, 10, 100 nM): C (showed less than 50% of inhibitory activity in 10 nM-addition zone and showed 50% or more of inhibitory activity in 100 nM-addition zone)
- aLISA BMP4 (BMP4; SMAD1 phosphorylation, peptides of Synthesis 2, peptide 0.02, 0.2, 2 nM): A (showed an inhibitory activity of 50% or more in a zone to which the peptide was added to in an amount of 0.2 nM)

Substance: 338 ({CH2CO}-FG[NMeF]G[Bip]GDD[Cha][Ahp(2)][NMeF]LHCG-NH2; thioether N-14) [compound 338]
- aLISA BMP7 (10 nM) % inh (BMP7; [7]): D (showed less than 30% of inhibitory activity in 10 nM-addition zone and showed 30% or more of inhibitory activity in 100 nM-addition zone)
- aLISA BMP4 (0.2 nM) % inh (BMP4; [8]): ND (the inhibitory activity was less than 30% at the maximum concentration evaluated)

Substance: 335 (FG[NMeF]G[Bip]GDD[Ala(cPent)]A[NMeF]LHCG-NH2; not fully specified (N-terminus, bridges)) [compound 335]
- aLISA BMP7 (10 nM) % inh (BMP7; [7]): D (showed less than 30% of inhibitory activity in 10 nM-addition zone and showed 30% or more of inhibitory activity in 100 nM-addition zone)
- aLISA BMP4 (0.2 nM) % inh (BMP4; [8]): ND (the inhibitory activity was less than 30% at the maximum concentration evaluated)

Substance: 328 (FG[NMeF]G[3Pal(6-Ph)]GDD[Cha]A[NMeF]LHCG-NH2; not fully specified (N-terminus, bridges)) [compound 328]
- aLISA BMP7 (10 nM) % inh (BMP7; [7]): D (showed less than 30% of inhibitory activity in 10 nM-addition zone and showed 30% or more of inhibitory activity in 100 nM-addition zone)
- aLISA BMP4 (0.2 nM) % inh (BMP4; [8]): ND (the inhibitory activity was less than 30% at the maximum concentration evaluated)

Substance: 92 ({CH2CO}-EKVYVDK[Bip]YYV[Bip][Phe(4-F)][Phe(4-COOH)][4Pal]SCG-NH2; thioether N-17; not fully specified) [compound 92]
- aLISA BMP7 (BMP7; inhibition of SMAD1 phosphorylation by BMP7 stimulus, peptides of Synthesis 2, classes A-D, ND): C (showed less than 50% of inhibitory activity in 10 nM-addition zone and showed 50% or more of inhibitory activity in 100 nM-addition zone)
- aLISA BMP4 (BMP4; inhibition of SMAD1 phosphorylation by BMP4 stimulus, peptides of Synthesis 2, classes A-C, ND): C (showed an inhibitory activity of less than 50% in 0.2 nM-addition zone and showed an inhibitory activity of 50% or more in 2 nM-addition zone were defined as B or C)

Substance: 42 (Ac-AKVYVDK(Ac)[Bip]PYP[Bip]Y[Phe(4-COOH)][Phe(4-COOH)]SCG-NH2; thioether (positions not given here); not fully specified (bridges)) [compound 42]
- aLISA BMP7 (BMP7; [5]): ND (the inhibitory activity was less than 30% at the maximum concentration evaluated)
- aLISA BMP4 (BMP4; [6]): A (showed an inhibitory activity of 50% or more in a zone to which the peptide was added to in an amount of 0.2 nM)
